Test results: patent publication US20220332804A1 (CSL INNOVATION, published 2022)
Numbering of substitutions follows the chain as printed.

What was measured:
Test in all cases: SPR, KD relative to WT C2;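 also: biacore SPR at 37 °C, anti-C2 mAbs captured via immobilised goat anti-human IgG, C2 alanine or serine surface mutants as analytes, 1:1 model fitted, double-referenced sensograms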
[1] = target: T1, human C2 K676S (human, UniProt P06681 21-752)
T1 sequence: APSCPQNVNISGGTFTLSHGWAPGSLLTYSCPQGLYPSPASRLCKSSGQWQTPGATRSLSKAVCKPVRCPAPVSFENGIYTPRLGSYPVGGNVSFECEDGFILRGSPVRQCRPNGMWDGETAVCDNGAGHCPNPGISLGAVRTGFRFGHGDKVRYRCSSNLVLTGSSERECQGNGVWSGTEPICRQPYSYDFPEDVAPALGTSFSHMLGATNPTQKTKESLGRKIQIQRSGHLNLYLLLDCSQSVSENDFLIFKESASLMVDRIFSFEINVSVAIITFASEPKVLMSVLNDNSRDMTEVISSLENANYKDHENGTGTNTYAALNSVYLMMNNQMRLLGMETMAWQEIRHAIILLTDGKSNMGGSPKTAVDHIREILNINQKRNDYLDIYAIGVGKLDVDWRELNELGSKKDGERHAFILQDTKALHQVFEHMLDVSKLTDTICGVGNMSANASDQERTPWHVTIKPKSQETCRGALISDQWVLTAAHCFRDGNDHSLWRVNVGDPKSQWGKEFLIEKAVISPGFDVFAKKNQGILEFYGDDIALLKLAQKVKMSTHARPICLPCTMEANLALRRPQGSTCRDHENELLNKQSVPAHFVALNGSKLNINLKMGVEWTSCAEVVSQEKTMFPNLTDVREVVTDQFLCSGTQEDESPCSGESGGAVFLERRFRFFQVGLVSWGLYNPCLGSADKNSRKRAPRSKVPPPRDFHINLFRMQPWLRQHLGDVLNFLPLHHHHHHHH

[2] = target: T2, human C2 N380A (human, UniProt P06681 21-752)
T2 sequence: T1 sequence with N360A, S656K

[3] = target: T3, human C2 H435A (human, UniProt P06681 21-752)
T3 sequence: T1 sequence with H415A, S656K

[4] = target: T4, human C2 E267A (human, UniProt P06681 21-752)
T4 sequence: T1 sequence with E247A, S656K

B1: RF16-226 (antibody, human IgG4 S228P, lambda)
heavy: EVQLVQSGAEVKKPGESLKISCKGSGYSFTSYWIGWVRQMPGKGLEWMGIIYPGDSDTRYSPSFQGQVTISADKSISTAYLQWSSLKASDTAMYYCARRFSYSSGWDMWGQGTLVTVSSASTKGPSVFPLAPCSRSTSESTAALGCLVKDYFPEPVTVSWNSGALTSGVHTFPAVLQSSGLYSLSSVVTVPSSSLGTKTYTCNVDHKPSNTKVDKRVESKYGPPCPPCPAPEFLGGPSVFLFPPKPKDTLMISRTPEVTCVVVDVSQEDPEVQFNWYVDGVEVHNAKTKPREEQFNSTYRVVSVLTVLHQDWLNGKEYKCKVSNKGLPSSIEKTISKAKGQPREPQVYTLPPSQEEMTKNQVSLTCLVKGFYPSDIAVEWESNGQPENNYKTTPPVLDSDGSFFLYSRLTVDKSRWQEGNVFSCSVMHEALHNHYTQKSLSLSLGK
light: SYELTQPPSVSVSPGQTARITCSGDALTSKYVAWYQQKSGLAPLLVIYEDTRRPSGIPAKFSGSSSGSVATLTISGAHGDDEADYYCYSTDASGHQRVFGGGTKLTVLSQPKAAPSVTLFPPSSEELQANKATLVCLISDFYPGAVTVAWKADGSPVKAGVETTKPSKQSNNKYAASSYLSLTPEQWKSHRSYSCQVTHEGSTVEKTVAPTECS
notes: pH-dependent anti-C2 antibody from a phage display library; also called WT
[1]
  Fold diff: 2 fold
[2]
  Fold diff: 2 fold
[3]
  Fold diff: 2 fold
[4]
  Fold diff: 1 fold
